Measured values reported in patent publication US8372810B2, “Anti-tumor drug, medicament, composition, and use thereof” (Gene Signal International SA, priority 2007, dated 2013).
Where “and” joins values, the source holds several entries; their conditions need not be identical. Equal values may be shown once. Entries after “also recorded” stand apart in the source; their conditions may differ.

Legend:
HUVEC cells = experiment: Inhibition of endothelial cell proliferation in vitro (MTT); format: cell-based, human
Method: HUVEC cells were cultured to confluency in complete EGM2-MV medium (Cambrex) at 37° C. and in 5% CO2 humidified atmosphere. Cells were then collected by trypsine-EDTA digestion (Versene, Eurobio). After 5 min, the enzymatic reaction was stopped by adding 3 ml of the culture medium containing 5% FCS. Cells were then centrifuged at 220 g for 10 min at room temperature, washed twice with 5 ml of culture medium, suspended in complete culture medium, counted and adjusted to 50 000 cells/ml. One hundred μL per well were then distributed to a 96-well cell culture grade micro-plate (5 000 cells/well) and incubated with different concentrations of the purified protein 497C-T2 in Tris-HCl 20 mM buffer (pH 8), containing 150 mM NaCl and urea 2M; this buffer was used as control.
After 42 hrs at 37° C., cell proliferation was measured using thiazolyl blue tetrazolium bromide (MTT) method. Briefly, MTT (Sigma) was dissolved in PBS at 5 mg/ml, the solution was filtered (0.22 μm) and 10 μl were added to each well of the 96-well micro-plates. After 3 hrs of incubation at 37° C., 5% CO2 humidified atmosphere, the micro-plates were centrifuged at 220×g for 10 min, the supernatant was discarded, and the crystals dissolved by the addition of 100 μl of DMSO to each well. The optical density (OD) at 570 nm was then measured using μQuant micro-plate reader (Bio-Tek Instrument gmbh, Colmar, France) coupled to the KC4 (Bio-Tek) software.

tumor cell line NCI-H460 = experiment: Proliferation of other cell lines: NCI-H460; format: cell-based, human; conditions: even at high concentration
[1] = system: fibroblast cell line MRC5; experiment: Proliferation of other cell lines: MRC5; format: cell-based; conditions: even at high concentration
tumor cell line Calu-6 = experiment: Proliferation of other cell lines: Calu-6; format: cell-based, human; conditions: even at high concentration
CHO = experiment: Proliferation of other cell lines: CHO; format: cell-based; conditions: even at high concentration
CALU-6 tumors = experiment: CALU-6 non-small cell lung cancer xenograft in Swiss Nude mice, tumor growth; format: in vivo
Method: CALU-6 cells were cultured as adherent cells in complete EMEM medium (Ref. CM1MEM18-01, batch No. 462502, Eurobio, France) 10% fetal calf serum (FCS; Ref. CVFSVF00-01, batch No. 513021, Eurobio, France) under a 37° C., 5% CO2 humidified atmosphere. They were amplified in 75 cm^2-flasks to reach 90×10^6 cells.
At D0, CALU-6 cells (human lung carcinoma) were collected from 75 cm^2-flasks by removing the medium and adding 3 ml of trypsine-EDTA (Ref. CEZTDA00-0U, batch No. 633920, Eurobio, France). After 5 min of incubation at 37° C., cells had detached from the plastic and the enzymatic reaction was stopped by adding 3 ml of EMEM medium containing 10% fetal calf serum. Cells were then centrifuged at 700 g for 5 min at room temperature. They were resuspended in serum-free EMEM culture medium. Cells were counted and viability assessment by Trypan Blue exclusion (Ref. CSTCOL03-OU, batch No. 434511, Eurobio, France). The number of viable CALU-6 cells was >99%. The number of cells was then adjusted to 25×10^6 cells/ml in serum-free medium.
CALU-6 cells 5×10^6 cells/mouse in 200 μl of serum-free medium) were then implanted subcutaneously in the right flank of each mouse.
At D12 post-implantation of the CALU-6 cells, the thirty mice were randomized into six groups of 5 mice. Tumor volumes had reached 228 to 468 mm^3 and mean tumor volumes were not statistically different between groups after randomization.
Mean tumor volumes (MTV), mean relative tumor volume (MRTV) and tumor growth inhibition (T/C) were calculated as for example 7.

[2] = Body weight and toxicity monitoring of mice bearing CALU-6 tumors; conditions: CALU-6 bearing Nude mice, 497C-T2 10 mg/kg IP
Method: Injections in groups 1, 2, 3 and 4 were performed according to the schedules Q2DX8, i.e. 1 quantity every two days, eight times.
CDDP was resuspended in sterile physiological serum at a concentration of 0.5 mg/mL and injected IP at a concentration of 5 mg/kg at a volume of 10 mL/kg, according to the treatment schedule Q2DX8.
Ketamine/Xylazine (80 mg/kg-12 mg/kg; Ref. K-113, Sigma, France) was used to anaesthetize the animals before sacrifice by cervical dislocation.

[3] = IP Q2DX8, CDDP 5 mg/kg (G2), 497C-T2 10 mg/kg (G3), 497C-T2 10 mg/kg + CDDP 5 mg/kg (G4)

B1: 497C-T2: entire LEL domain of protein 497C, SEQ ID NO:3 (112 amino acids); as produced SEQ ID NO:8, with N-terminal His-Tag and C-terminal tail, 24 kD (protein, listed as Homo sapiens)
chain: MHHHHHHSSGLVPRGSGMKETAAAKFERQHMDSPDLGTDDDDKISGFVFRHEIKDTFLRTYTDAMQTYNGNDERSRAVDHVQRSLSCCGVQNYTNWSTSPYFLEHGIPPSCCMNETDCNPQDLHNLTVAATKVNQKGCYDLVTSFMETNMGIIAGDRASPQPWRYRIRILAPSTSLRPHSSTTTTTTXIRLLTKPERKLSWLLPPLSNN
modifications: X: residue not identified in the source
concentration significantly inhibiting human endothelial cell proliferation (as low as) (HUVEC cells): 500 nM | % inhibition of endothelial cell proliferation (HUVEC cells; 5 μM (122 μg) 497C-T2, 42 hrs, relative to control, 5 µM): 77% and 75% | inhibition of human endothelial cell proliferation (HUVEC cells; increasing concentrations, FIG. 1): inhibited human endothelial cell proliferation in a dose dependent manner | anti-proliferative effect (tumor cell line NCI-H460): without any detectable anti-proliferative effect | anti-proliferative effect [1]: without any detectable anti-proliferative effect | anti-proliferative effect (tumor cell line Calu-6): without any detectable anti-proliferative effect | anti-proliferative effect (CHO): without any detectable anti-proliferative effect | anti-tumoral activity (CALU-6 tumors; CALU-6, monotherapy (G3) or combined with CDDP (G4)): slight anti-tumoral activity | Growth inhibition based on T/C ratio, T/C ratio (%) D14 (CALU-6 tumors; [3]): 10% | Growth inhibition based on T/C ratio, T/C ratio (%) D16 (CALU-6 tumors; [3]): 33% | Growth inhibition based on T/C ratio, T/C ratio (%) D18 (CALU-6 tumors; [3]): 7% | Growth inhibition based on T/C ratio, T/C ratio (%) D20 (CALU-6 tumors; [3]): 13% | Growth inhibition based on T/C ratio, T/C ratio (%) D22 (CALU-6 tumors; [3]): 26% | Growth inhibition based on T/C ratio, T/C ratio (%) D24 (CALU-6 tumors; [3]): 24% | Growth inhibition based on T/C ratio, T/C ratio (%) D26 (CALU-6 tumors; [3]): 39% | Growth inhibition based on T/C ratio, T/C ratio (%) D28 (CALU-6 tumors; [3]): 27% | MRTV D14 (CALU-6 tumors; [3]): 1.64 | MRTV D16 (CALU-6 tumors; [3]): 2.11 | MRTV D18 (CALU-6 tumors; [3]): 2.34 | MRTV D20 (CALU-6 tumors; [3]): 3.22 | MRTV D22 (CALU-6 tumors; [3]): 3.09 | MRTV D24 (CALU-6 tumors; [3]): 4.31 | MRTV D26 (CALU-6 tumors; [3]): 4.60 | MRTV D28 (CALU-6 tumors; [3]): 6.02 | MRTV D12 (CALU-6 tumors; reference day, IP Q2DX8, CDDP 5 mg/kg (G2), 497C-T2 10 mg/kg (G3), 497C-T2 10 mg/kg + CDDP 5 mg/kg (G4)): 1 | toxicity during the course of the treatment [2]: No toxicity was observed; also recorded: not toxic
